Experimental data reported in patent US12241099B2, “Peptide therapeutics for treating Alzheimer's disease and related conditions” (The Board of Regents of the University of Oklahoma, priority 2018, dated 2025).
Residues, ends and D or L forms follow the SMILES beside them. No end group written: not given here.

What was measured:
[1] = target: T1, Aβ1-42 (Homo sapiens, UniProt P05067); assay: ELISA binding of Aβ1-42 to plate-coated neutrophil proteins and derived peptides; settings: for binding of Aβ1-42: 150 nM Aβ1-42, plate coated with protein/peptide at 5 μg/ml, no protease inhibitor; for binding of Aβ1-42 on addition of antiproteases: 1 mM PMSF (CAP37, NE) or 125 μM chymostatin (CG)
T1 sequence (P05067 672-713 limits assumed): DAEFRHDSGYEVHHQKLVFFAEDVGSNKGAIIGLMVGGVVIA
Protocol: CAP37, NE, and CG were purified from human neutrophils and purchased from Athens Research and Technology. BSA was from Sigma Aldrich. CAP37-derived peptides were synthesized by CS Bio Co with a purity >95%. Maxisorp plates from Nunc were coated with 100 μl neutrophil protein, peptide, or BSA diluted at 5 μg/ml in PBS with or without 1 mM PMSF purchased from Sigma Aldrich (for experiments with CAP37, NE, and BSA) or ±125 μM chymostatin purchased from Santa Cruz (for experiments with CG and BSA). Plate coating was done at room temperature for 2 hours with shaking and then at 4° C. overnight. Plates were washed three times in PBST (PBS+0.05% tween), then blocked with 3% BSA in PBST for 1 hour at room temperature with shaking. Plates were washed 3× in PBST, and 150 nM Aβ1-42 (purchased from Bachem and reconstituted in 1 mM NaOH) was added in 0.1% BSA in PBST and incubated 70 minutes at 37° C. Plates were then washed 4 times with PBST and monoclonal mouse anti-amyloid precursor protein/amyloid beta antibody, purchased from Cell Signaling Technology was added at a 1:500 dilution in 1% BSA in PBST and incubated for 1 hour at room temperature with shaking. Plates were washed 4× in PBST and donkey anti mouse HRP-conjugated secondary antibody from Jackson ImmunoResearch Laboratories was added at 1:10,000 in PBST and incubated 1 hour at room temperature with shaking, then washed 4 times in PBST. […] Sulfuric acid (5N) was added to each well to stop the reaction, and the absorbance at 492 nm was read on a Biotek Synergy II plate reader.

[2] = target: T1, Aβ1-42; assay: Amyloid Beta (1-42) Thioflavin T fibrillation (aggregation) assay; assay type: biochemical; set-up: used to monitor the formation of Aβ1-42 peptide fibrils; purchased Anaspec; settings: for inhibition of Aβ1-42 fibrillation (in words): increasing concentrations of peptide, Rfu; for molar ratio inhibitor/Aβ1-42 corresponding to IC50 of fibrillation: ratio at IC50
Protocol: The Amyloid Beta (1-42) Thioflavin T Aggregation Kit was purchased from Anaspec and used to monitor the formation of Aβ1-42 peptide fibrils, according to the manufacturer's instructions, with some modifications. Thioflavin T dye was diluted to 250 μM in fibrillation buffer A and kept in the dark until use. […] Neutrophil proteins were tested in the absence and presence of protease inhibitors. […] Chymostatin was dissolved in DMSO and used at 125 μM final concentration in reactions with CG. Reactions were pipetted up and down twice in the wells with a multichannel pipette to ensure mixing, and fluorescence (ΔEX=440 nm, ΔEm=485 nm) was read every 5 minutes for 3 hours on a BioTek Synergy 2 plate reader with Gen 5 software, with a sensitivity set at 65.

[3] = test system: mouse neuroblastoma cell line Neuro-2a; assay: Neurotoxicity assay of Aβ1-42 fibrils/oligomers (trypan blue cell death); assay type: cell-based; settings: for effect on Aβ1-42 oligomer toxicity: oligomers formed 15 min in presence of increasing concentrations; for effect on Aβ1-42 oligomer toxicity / effect on toxicity of Aβ1-42 fibrils: 18 μM Aβ1-42 on cells, 24 hours; for effect on toxicity of Aβ1-42 fibrils: protein at IC50 of fibrillation pre-incubated with Aβ1-42 24 hours in fibrillation conditions; for concentration at which significant inhibition of oligomer toxicity starts: tested at 0.5, 1, 2 and 4-fold the fibrillation IC50
Protocol: A mouse neuroblastoma cell line Neuro-2a from ATCC was used for these experiments. Cells were grown and seeded in 96 well plates at 20,000 cells per well in complete medium (MEM α, nucleosides, no phenol red from Gibco, with 10% heat inactivated fetal bovine serum from Gibco, and penicillin/streptomycin from Lonza). At 24 hours after seeding, cells were washed with warmed MEM α, and then incubated in 90 μl MEM α+N2 Supplements+20 μl test sample (Aβ1-42 prepared as described below). Cells were incubated another 24 hours at 37° C., and then dislodged by pipetting up and down vigorously. 10 μl of cells were added to 10 μl trypan blue dye (0.4% solution) from BioRad, mixed and counted in a BioRad TC20 cell counter. The percent of living and dead cells was recorded for each well. In the case of the water and Triton X100 controls, 20 μl MEM α+N2 Supplements was added instead of the test sample and, just before counting the cells, 20 μl of medium was removed and replaced with 20 μl water or Triton X100 at a final concentration of 0.1%.
Monomeric Aβ1-42 (hexafluoroisopropanol treated Aβ1-42) from Bachem was reconstituted at 5 mM in anhydrous DMSO. Untreated Aβ1-42 from CS Bio was also used in these experiments. It was first treated with 1 mM in hexafluoroisopropanol from Sigma Aldrich, incubated 30 min at room temperature, and left open to dry in the fume hood overnight. It was then vacuum desiccated for 1 hour at room temperature. Dry films of Aβ1-42 were stored at −20° C. until use to keep it under a monomeric form. Aβ1-42 from CS Bio was also reconstituted in anhydrous DMSO at 5 mM before use.
To prepare the fibril and oligomer test samples, monomeric Aβ1-42 was placed under conditions favoring either formation of fibrils or oligomers. To form fibrils, 100 μM Aβ1-42 was added to Anaspec fibrillation buffer A±neutrophil protein, and incubated at 37° C. 24 hours before addition to the cells at a final concentration of 18 μM. Neutrophil proteins were used at Aβ/Protein ratios that led to 50% inhibition of fibrillation (IC50), previously determined for each protein in the fibrillation assay. To form oligomers, MEM α+N2 Supplements was used instead of the fibrillation buffer A±increasing concentrations of neutrophil protein or CAP37-derived peptide. Each mixture was then added to a tube containing freshly prepared Aβ1-42 in DMSO at a final concentration of 100 μM, and incubated 15 min at room temperature. These test samples were then tested on the cells at a final concentration of 18 μM.
Oligomers were formed by incubating 100 μM Aβ1-42 in MEMα+N2 Supplements at 4° C. for 3 days. […] Finally, these oligomers were added to neurons at a final concentration of 18 μM, and percent cell death was measured at 24 h.

95-122 5RMP: 95-122 with two AEEA mini-PEG molecules and 4 arginines at the N-terminal end and one arginine at the C-terminal end (RRRRLDREANLTSSVTILPLPLQNATVEAGTRR; also: two AEEA mini-PEG molecules, place not given here)
binding of Aβ1-42 [1]: does not interact | inhibition of Aβ1-42 fibrillation (in words) [2]: did not inhibit fibrillation

95-122: wild-type CAP37-derived peptide 95-122 (LDREANLTSSVTILPLPLQNATVEAGTR)
binding of Aβ1-42 [1]: did not bind

CSCC[C@H](NC(=O)[C@H](CO)NC(=O)[C@@H](NC(=O)[C@H](CCCNC(=N)N)NC(=O)CNC(=O)[C@H](Cc1c[nH]c2ccccc12)NC(=O)CNC(=O)[C@H](C)NC(=O)[C@@H](NC(=O)[C@@H](NC(=O)[C@H](CS)NC(=O)[C@H](CC(C)C)NC(=O)[C@@H](NC(=O)CN)[C@@H](C)O)[C@@H](C)O)C(C)C)C(C)C)C(=O)N[C@@H](CCCNC(=N)N)C(=O)N[C@@H](CCCNC(=N)N)C(=O)NCC(=O)N[C@H](C(=O)N[C@@H](CCCNC(=N)N)C(=O)N[C@H](C(=O)N[C@@H](CC(C)C)C(=O)N[C@@H](CCCNC(=N)N)C(=O)N[C@@H](CCC(=O)O)C(=O)N[C@H](C(=O)N[C@@H](CCC(N)=O)C(=O)N[C@@H](CC(C)C)C(=O)O)C(C)C)[C@@H](C)O)[C@@H](C)O [CG119-144 D137R] (H-GTLCTVAGWGRVSMRRGTRTLREVQL-OH; N-terminus and C-terminus assumed)
binding of Aβ1-42 [1]: increased the binding | effect on Aβ1-42 oligomer toxicity [3]: significantly decrease | effect on neurotoxicity of preformed Aβ1-42 oligomers ([3]; oligomers formed first (3 days, 4° C.), then incubated with peptide at 2×IC50 for 3 days, 18 μM on neurons, cell death at 24 h): significantly reversed | inhibition of Aβ1-42 fibrillation (in words) [2]: inhibitory effects | molar ratio inhibitor/Aβ1-42 corresponding to IC50 of fibrillation [2]: 1/3

CG119-144 ΔR129V130: mutant CG-derived peptide, CG119-144 with positively charged R129 (and V130) deleted (GTLCTVAGWGSMRRGTDTLREVQL)
binding of Aβ1-42 [1]: abolished the binding | inhibition of Aβ1-42 fibrillation (in words) [2]: no inhibitory effect

CG: cathepsin G, full-length, purified from human neutrophils
binding of Aβ1-42 [1]: stronger | binding of Aβ1-42 on addition of antiproteases [1]: not significantly changed | effect on Aβ1-42 oligomer toxicity [3]: significantly inhibited | effect on toxicity of Aβ1-42 fibrils [3]: significant inhibition | concentration at which significant inhibition of oligomer toxicity starts [3]: 0.5 ×IC50

GTLCTVAGWGRVSMRRGTDTLREVQL (Completely synthesized in the lab. Amino acids 119-144 of Cathepsin G protein.) [CG119-144]
binding of Aβ1-42 [1]: Highest levels | inhibition of Aβ1-42 fibrillation (in words) [2]: no inhibitory effect

GTLCTVAGWGRVSMRRGTDTLRPRVQL (Completely synthesized in the lab. Peptide CG119-144.) [CG119-144 E141PR]
binding of Aβ1-42 [1]: increased the binding | inhibition of Aβ1-42 fibrillation (in words) [2]: inhibitory effects

GTRCQVAGWGSQRSGGRLSRFPRFVNV (Completely synthesized in the lab. Amino acids 120-146 of CAP37 protein.) [120-146 QR, wild-type CAP37-derived peptide, amino acids 120-146 of CAP37 protein]
binding of Aβ1-42 [1]: binds

NE: neutrophil elastase, full-length, purified from human neutrophils
binding of Aβ1-42 [1]: almost undetectable | binding of Aβ1-42 on addition of antiproteases [1]: significantly increased | effect on Aβ1-42 oligomer toxicity [3]: significantly inhibited | effect on toxicity of Aβ1-42 fibrils [3]: significant inhibition | concentration at which significant inhibition of oligomer toxicity starts [3]: 2 ×IC50

NQGRHFCGGALIHARFVMTAASCFQ (Completely synthesized in the lab. Amino acids 20-44 of CAP37 protein.) [20-44 CC, wild-type CAP37-derived peptide, amino acids 20-44 of CAP37 protein]
binding of Aβ1-42 [1]: binds

NQGRHFSGGALIHARFVMTAASCFQ (Completely synthesized in the lab. Peptide CAP3720-44C26S.) [20-44 SC, mutant CAP37-derived peptide 20-44]
binding of Aβ1-42 [1]: binds

B1: CAP37: cationic antimicrobial protein of molecular weight 37 KDa, full-length, purified from human neutrophils (protein)
chain: IVGGRKARPRQFPFLASIQNQGRHFCGGALIHARFVMTAASCFQSQNPGVSTVVLGAYDLRRRERQSRQTFSISSMSENGYDPQQNLNDLMLLQLDREANLTSSVTILPLPLQNATVEAGTRCQVAGWGSQRSGGRLSRFPRFVNVTVTPEDQCRPNNVCTGVLTRRGGICNGDGGTPLVCEGLAHGVASFSLGPCGRGPDFFTRVALFRDWIDGVLNNPGP
binding of Aβ1-42 [1]: stronger | binding of Aβ1-42 on addition of antiproteases [1]: not significantly changed | effect on Aβ1-42 oligomer toxicity [3]: does not inhibit | effect on toxicity of Aβ1-42 fibrils [3]: no effect | molar ratio inhibitor/Aβ1-42 corresponding to IC50 of fibrillation [2]: 1/11
